Consider one molecule from patent publication US20150098945A1 (Daiichi Sankyo, published 2015).

The target of test [1] is T1, human ROBO2 (pCI-hROBO2-transfected HEK293 cells) (human).
T1 chain: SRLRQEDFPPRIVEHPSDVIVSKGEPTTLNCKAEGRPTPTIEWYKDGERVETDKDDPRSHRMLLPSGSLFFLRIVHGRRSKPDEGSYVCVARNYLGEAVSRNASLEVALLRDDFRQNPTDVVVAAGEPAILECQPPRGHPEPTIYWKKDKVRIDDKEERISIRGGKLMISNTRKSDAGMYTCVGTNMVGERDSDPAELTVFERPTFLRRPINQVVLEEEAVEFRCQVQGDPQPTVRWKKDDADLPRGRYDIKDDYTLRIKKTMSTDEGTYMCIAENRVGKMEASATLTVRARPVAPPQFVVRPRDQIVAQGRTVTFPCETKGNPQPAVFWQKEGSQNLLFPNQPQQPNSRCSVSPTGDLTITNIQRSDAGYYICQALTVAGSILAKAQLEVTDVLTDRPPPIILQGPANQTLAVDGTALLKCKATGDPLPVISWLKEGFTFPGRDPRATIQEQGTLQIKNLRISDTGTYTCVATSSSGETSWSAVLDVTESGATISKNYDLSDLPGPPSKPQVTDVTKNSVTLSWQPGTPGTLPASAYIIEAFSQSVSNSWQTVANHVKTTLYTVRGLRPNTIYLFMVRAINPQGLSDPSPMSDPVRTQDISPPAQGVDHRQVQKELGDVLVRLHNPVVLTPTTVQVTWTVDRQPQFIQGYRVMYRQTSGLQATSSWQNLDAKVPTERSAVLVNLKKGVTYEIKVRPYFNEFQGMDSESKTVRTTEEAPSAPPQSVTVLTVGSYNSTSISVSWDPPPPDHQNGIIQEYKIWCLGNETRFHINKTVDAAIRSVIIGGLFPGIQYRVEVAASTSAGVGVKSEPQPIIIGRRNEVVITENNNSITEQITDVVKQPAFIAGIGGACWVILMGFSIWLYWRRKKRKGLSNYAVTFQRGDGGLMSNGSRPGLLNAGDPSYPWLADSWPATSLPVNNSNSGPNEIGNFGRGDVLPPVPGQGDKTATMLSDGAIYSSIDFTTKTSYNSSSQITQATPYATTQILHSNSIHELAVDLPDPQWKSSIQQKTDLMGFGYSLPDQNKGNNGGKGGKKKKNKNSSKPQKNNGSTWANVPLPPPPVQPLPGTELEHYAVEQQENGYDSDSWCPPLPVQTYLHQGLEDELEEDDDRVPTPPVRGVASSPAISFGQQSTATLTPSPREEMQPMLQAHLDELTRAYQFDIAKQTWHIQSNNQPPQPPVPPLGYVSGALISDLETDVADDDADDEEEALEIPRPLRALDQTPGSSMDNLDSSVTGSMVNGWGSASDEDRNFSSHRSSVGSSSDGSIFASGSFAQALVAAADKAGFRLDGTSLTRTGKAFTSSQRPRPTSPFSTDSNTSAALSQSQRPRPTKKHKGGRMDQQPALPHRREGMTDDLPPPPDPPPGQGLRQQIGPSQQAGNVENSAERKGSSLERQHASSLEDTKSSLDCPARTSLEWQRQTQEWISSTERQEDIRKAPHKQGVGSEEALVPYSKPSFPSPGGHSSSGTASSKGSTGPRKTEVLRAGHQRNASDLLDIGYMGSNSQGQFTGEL
In words: flow cytometry on transfected HEK293 cells. On the technique in general: Flow cytometry measures light scatter and fluorescence of single cells or particles in a stream.

For test [2], the target named is T2, N-terminal FLAG-tagged cynomolgus monkey ROBO4, cynoROBO4-2 (pCI-FLAG-cynoROBO4-2) (cynomolgus monkey, UniProt Q8WZ75 28-1007 (human entry)).
T2 chain: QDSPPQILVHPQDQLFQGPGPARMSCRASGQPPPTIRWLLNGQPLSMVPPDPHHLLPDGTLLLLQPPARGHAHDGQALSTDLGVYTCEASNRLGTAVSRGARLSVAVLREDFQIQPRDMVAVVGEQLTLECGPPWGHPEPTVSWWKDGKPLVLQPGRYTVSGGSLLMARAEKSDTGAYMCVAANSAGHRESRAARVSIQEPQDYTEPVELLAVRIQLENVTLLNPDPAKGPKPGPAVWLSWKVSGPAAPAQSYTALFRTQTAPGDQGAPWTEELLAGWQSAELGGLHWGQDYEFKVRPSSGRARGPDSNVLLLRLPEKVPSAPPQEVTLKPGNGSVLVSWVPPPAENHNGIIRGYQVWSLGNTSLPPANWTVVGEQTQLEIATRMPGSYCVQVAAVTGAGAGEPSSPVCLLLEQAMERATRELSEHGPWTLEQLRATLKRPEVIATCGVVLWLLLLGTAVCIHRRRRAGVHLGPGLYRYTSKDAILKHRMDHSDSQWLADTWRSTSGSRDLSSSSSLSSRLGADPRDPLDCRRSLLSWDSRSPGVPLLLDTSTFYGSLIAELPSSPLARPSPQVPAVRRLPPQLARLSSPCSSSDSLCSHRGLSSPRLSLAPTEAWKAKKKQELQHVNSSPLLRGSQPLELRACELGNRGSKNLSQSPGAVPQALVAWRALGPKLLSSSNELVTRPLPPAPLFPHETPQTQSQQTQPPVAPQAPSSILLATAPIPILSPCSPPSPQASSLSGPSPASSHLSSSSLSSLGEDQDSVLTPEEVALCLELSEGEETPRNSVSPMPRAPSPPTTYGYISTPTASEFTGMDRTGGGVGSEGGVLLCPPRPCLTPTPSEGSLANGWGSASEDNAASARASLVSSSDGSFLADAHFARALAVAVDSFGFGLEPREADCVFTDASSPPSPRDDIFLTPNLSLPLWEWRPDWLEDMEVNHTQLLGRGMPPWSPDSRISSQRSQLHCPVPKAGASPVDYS
In words: flow cytometry on transfected HEK293 cells.

B1: humanized MAb1 antibody H-1140 (antibody, human IgG2, kappa, V domains shown)
VH: EVQLVESGGGLVQPGGSLRLSCAASGFTFSTYAMSWVRQAPGKGLEWVATISQGGTYTYYPDSVKGRFTISRDNAKNTLYLQMNSLRAEDTAVYYCARLIYYDYLDYWGQGTLVTVSS
VL: DIVMTQSPLSLPVTLGEPASISCRSSQSLENSNGNTYLNWYLQKPGQSPQLLIYRVSNRFSGVPDRFSGSGSGTDFTLKISRVEAEDVGVYYCLQVTHVPWTFGPGTKVDIKR
notes: Human IgG2 / kappa constant regions; also called hMAb1-H2-type heavy chain + hMAb1-L1-type light chain
As for B1, the binding result in test [1] is on record as “no binding (tested: 10 µg/mL (method of 4)-4-2))”; in test [2], “binds”.
